{"source": "paper PMC9585055", "origin": "cited, not measured here", "target": "cellular prion protein PrPC (Homo sapiens) (UniProt P04156)", "data": [{"substance": "tissue-type plasminogen activator (from UniProt P00750)", "values": [{"measurement": "Kd", "result": 2.5, "unit": "nM"}]}]}
